Six molecules from US20260242735A1 (UNIVERSIT T BASEL, published 2026) can be followed below.

Assay [1] concerns the target T1, human wild-type CD33 (human, UniProt P20138 18-364).
T1 construct: also called SIGLEC3; P67
As to the kind of experiment: flow cytometry, Fab at 0.50 ug/ml on HEK293-T cells expressing CD33 against vector alone.
Method: (§1) Serial dilutions of each Fab were tested for immunoreactivity against cells expressing wild-type CD33 or vector alone. The optimal screening concentration for the Fabs was determined based on the raw signal values and signal-to-background calculations. Each point represents the mean of four replicates.

The target of a further assay is human CD33 P40A (human, UniProt P20138 18-364). Briefly: flow cytometry, alanine scan.
A further assay deals with human CD33 S28A (human, UniProt P20138 18-364). As to the kind of experiment: flow cytometry, alanine scan.
Another assay concerns the target human CD33 V31A (human, UniProt P20138 18-364). As to the kind of experiment: flow cytometry, alanine scan.
The target in the next assay is human CD33 T42A (human, UniProt P20138 18-364). Briefly: flow cytometry, alanine scan.
A further assay concerns the target human CD33 C41A (human, UniProt P20138 18-364). As to the kind of experiment: flow cytometry, alanine scan.
Another assay has as its target human CD33 T30A (human, UniProt P20138 18-364). As to the kind of experiment: flow cytometry, alanine scan.
The target in the next assay is human CD33 C36A (human, UniProt P20138 18-364). As to the kind of experiment: flow cytometry, alanine scan.
The next assay has as its target human CD33 G34A (human, UniProt P20138 18-364). Briefly: flow cytometry, alanine scan.
For the next assay, the target named is human CD33 F43A (human, UniProt P20138 18-364). As to the kind of experiment: flow cytometry, alanine scan.
The target in a further assay is human CD33 F21A (human, UniProt P20138 18-364). Briefly: flow cytometry, alanine scan.
The next assay has as its target human CD33 P19A (human, UniProt P20138 18-364). As to the kind of experiment: flow cytometry, alanine scan.
The next assay has as its target human CD33 L23A (human, UniProt P20138 18-364). Briefly: flow cytometry, alanine scan.
In a further assay the target is human CD33 Q32A (human, UniProt P20138 18-364). Briefly: flow cytometry, alanine scan.
The target of another assay is human CD33 N20A (human, UniProt P20138 18-364). Briefly: flow cytometry, alanine scan.
In a further assay the target is human CD33 L35A (human, UniProt P20138 18-364). As to the kind of experiment: flow cytometry, alanine scan.
The target of the next assay is human CD33 V39A (human, UniProt P20138 18-364). As to the kind of experiment: flow cytometry, alanine scan.
The target in a further assay is human CD33 E33A (human, UniProt P20138 18-364). As to the kind of experiment: flow cytometry, alanine scan.
The target in another assay is human CD33 D18A (human, UniProt P20138 19-364). Briefly: flow cytometry, alanine scan.
The target of another assay is human CD33 L38A (human, UniProt P20138 18-364). As to the kind of experiment: flow cytometry, alanine scan.
The target in a further assay is human CD33 V37A (human, UniProt P20138 18-364). Briefly: flow cytometry, alanine scan.
Another assay concerns the target human CD33 V29A (human, UniProt P20138 18-364). As to the kind of experiment: flow cytometry, alanine scan.
Another assay deals with human CD33 H45A (human, UniProt P20138 18-364). As to the kind of experiment: flow cytometry, alanine scan.
A further assay concerns the target human CD33 E27A (human, UniProt P20138 18-364). Briefly: flow cytometry, alanine scan.
The next assay deals with human CD33 W22A (human, UniProt P20138 18-364). Briefly: flow cytometry, alanine scan.
The target of assay [2] is T1, human wild-type CD33. As to the kind of experiment: flow cytometry, IgG at 0.25 ug/ml on HEK293-T cells expressing CD33 against vector alone.
Method: Binding of the antibodies to the transfected cells and the optimal assay conditions were evaluated in 384-well format. Detection of cellular expression was measured via high-throughput flow cytometry. Serial dilutions of each antibody were tested for immunoreactivity against cells expressing CD33 or vector alone. The optimal screening concentration for each antibody was determined based on the raw signal values and signal-to-background calculations. Each point represents the mean of four replicates.
The target of assay [3] is T1, human wild-type CD33. Briefly: flow cytometry, Fab at 1.00 ug/ml on HEK293-T cells expressing CD33 against vector alone.
Method: as §1

T1 sequence (P20138 18-364 limits assumed): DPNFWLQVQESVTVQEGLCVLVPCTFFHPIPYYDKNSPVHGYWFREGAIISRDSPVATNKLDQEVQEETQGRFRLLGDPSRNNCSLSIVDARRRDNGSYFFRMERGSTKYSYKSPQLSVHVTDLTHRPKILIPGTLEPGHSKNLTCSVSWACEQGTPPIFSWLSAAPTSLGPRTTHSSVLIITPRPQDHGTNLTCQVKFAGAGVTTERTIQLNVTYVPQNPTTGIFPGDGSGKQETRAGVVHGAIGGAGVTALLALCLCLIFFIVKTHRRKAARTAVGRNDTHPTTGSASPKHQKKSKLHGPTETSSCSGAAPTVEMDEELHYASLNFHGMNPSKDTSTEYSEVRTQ
Sequence of human CD33 T42A (P20138 18-364 T42A limits assumed): as the sequence (P20138 18-364 limits assumed) above, with T25A counted along it
Sequence of human CD33 L35A (P20138 18-364 L35A limits assumed): as the sequence (P20138 18-364 limits assumed) above, with L18A counted along it
Sequence of human CD33 V39A (P20138 18-364 V39A limits assumed): as the sequence (P20138 18-364 limits assumed) above, with V22A counted along it
Sequence of human CD33 H45A (P20138 18-364 H45A limits assumed): as the sequence (P20138 18-364 limits assumed) above, with H28A counted along it
Sequence of human CD33 T30A (P20138 18-364 T30A limits assumed): as the sequence (P20138 18-364 limits assumed) above, with T13A counted along it
Sequence of human CD33 D18A (P20138 18-364 D18A limits assumed): as the sequence (P20138 18-364 limits assumed) above, with D1A counted along it
Sequence of human CD33 V29A (P20138 18-364 V29A limits assumed): as the sequence (P20138 18-364 limits assumed) above, with V12A counted along it
Sequence of human CD33 C36A (P20138 18-364 C36A limits assumed): as the sequence (P20138 18-364 limits assumed) above, with C19A counted along it
Sequence of human CD33 N20A (P20138 18-364 N20A limits assumed): as the sequence (P20138 18-364 limits assumed) above, with N3A counted along it
Sequence of human CD33 G34A (P20138 18-364 G34A limits assumed): as the sequence (P20138 18-364 limits assumed) above, with G17A counted along it
Sequence of human CD33 Q32A (P20138 18-364 Q32A limits assumed): as the sequence (P20138 18-364 limits assumed) above, with Q15A counted along it
Sequence of human CD33 P40A (P20138 18-364 P40A limits assumed): as the sequence (P20138 18-364 limits assumed) above, with P23A counted along it
Sequence of human CD33 S28A (P20138 18-364 S28A limits assumed): as the sequence (P20138 18-364 limits assumed) above, with S11A counted along it
Sequence of human CD33 W22A (P20138 18-364 W22A limits assumed): as the sequence (P20138 18-364 limits assumed) above, with W5A counted along it
Sequence of human CD33 C41A (P20138 18-364 C41A limits assumed): as the sequence (P20138 18-364 limits assumed) above, with C24A counted along it
Sequence of human CD33 F21A (P20138 18-364 F21A limits assumed): as the sequence (P20138 18-364 limits assumed) above, with F4A counted along it
Sequence of human CD33 E33A (P20138 18-364 E33A limits assumed): as the sequence (P20138 18-364 limits assumed) above, with E16A counted along it
Sequence of human CD33 V37A (P20138 18-364 V37A limits assumed): as the sequence (P20138 18-364 limits assumed) above, with V20A counted along it
Sequence of human CD33 E27A (P20138 18-364 E27A limits assumed): as the sequence (P20138 18-364 limits assumed) above, with E10A counted along it
Sequence of human CD33 L38A (P20138 18-364 L38A limits assumed): as the sequence (P20138 18-364 limits assumed) above, with L21A counted along it
Sequence of human CD33 P19A (P20138 18-364 P19A limits assumed): as the sequence (P20138 18-364 limits assumed) above, with P2A counted along it
Sequence of human CD33 F43A (P20138 18-364 F43A limits assumed): as the sequence (P20138 18-364 limits assumed) above, with F26A counted along it
Sequence of human CD33 V31A (P20138 18-364 V31A limits assumed): as the sequence (P20138 18-364 limits assumed) above, with V14A counted along it
Sequence of human CD33 L23A (P20138 18-364 L23A limits assumed): as the sequence (P20138 18-364 limits assumed) above, with L6A counted along it
Method for human CD33 C36A: (§2) An alanine scan on human CD33 was performed to the determine the residues on CD33 that are involved in binding to the antibodies investigated. […] Briefly, a mutation library of CD33 was created by high-throughput, site-directed mutagenesis. Each residue was individually mutated to alanine, with alanine codons mutated to serine. The mutant library was arrayed in 384-well microplates and transiently transfected into HEK293-T. Following transfection, cells were incubated with the indicated antibodies (IgG or Fab) at concentrations pre-determined using an independent immunofluorescence titration curve on wild type CD33. […] Binding of each antibody to each mutant clone was determined in duplicates. For each point, background fluorescence was subtracted from the raw data, which were then normalized to antibody reactivity with wild type CD33.
(§3) Critical residues for antibody binding (outlined in dark grey) were residues whose mutations led to a binding of the test Abs of less than 20%. Additional secondary residues (outlined in light grey) were identified that led to a binding of the test Abs of between 20 and 40% as compared to the wild type CD33.
Method for human CD33 C41A: as §2, §3
Method for human CD33 D18A: as §2, §3
Method for human CD33 E27A: as §2, §3
Method for human CD33 E33A: as §2, §3
Method for human CD33 F21A: as §2, §3
Method for human CD33 F43A: as §2, §3
Method for human CD33 G34A: as §2, §3
Method for human CD33 H45A: as §2, §3
Method for human CD33 L23A: as §2, §3
Method for human CD33 L35A: as §2, §3
Method for human CD33 L38A: as §2, §3
Method for human CD33 N20A: as §2, §3
Method for human CD33 P19A: as §2, §3
Method for human CD33 P40A: as §2, §3
Method for human CD33 Q32A: as §2, §3
Method for human CD33 S28A: as §2, §3
Method for human CD33 T30A: as §2, §3
Method for human CD33 T42A: as §2, §3
Method for human CD33 V29A: as §2, §3
Method for human CD33 V31A: as §2, §3
Method for human CD33 V37A: as §2, §3
Method for human CD33 V39A: as §2, §3
Method for human CD33 W22A: as §2, §3

B1: Refmab #5 Fab fragment (Fab, V domains shown)
VH: QVQLVQSGAEVKKPGASVKVSCKASGYTFTNYDINWVRQAPGQGLEWIGWIYPGDGSTKYNEKFKAKATLTADTSTSTAYMELRSLRSDDTAVYYCASGYEDAMDYWGQGTTVTVSS
VL: DIQMTQSPSSLSASVGDRVTINCKASQDINSYLSWFQQKPGKAPKTLIYRANRLVDGVPSRFSGSGSGQDYTLTISSLQPEDFATYYCLQYDEFPLTFGGGTKVEIK
For B1, the “Signal:Background” value in the assay with human wild-type CD33 [1] was 17 signal:background ratio.

B2: Refmab #6 (antibody, V domains shown)
VH: QVQLQQPGAEVVKPGASVKMSCKASGYTFTSYYIHWIKQTPGQGLEWVGVIYPGNDDISYNQKFQGKATLTADKSSTTAYMQLSSLTSEDSAVYYCAREVRLRYFDVWGQGTTVTVSS
VL: EIVLTQSPGSLAVSPGERVTMSCKSSQSVFFSSSQKNYLAWYQQIPGQSPRLLIYWASTRESGVPDRFTGSGSGTDFTLTISSVQPEDLAIYYCHQYLSSRTFGQGTKLEIK
notes: The alanine scan used IgG or Fab
Consider B2, for which the “Mean % WT Binding” value with human CD33 P40A was 55.5 % of WT; with human CD33 S28A, 89.4 % of WT; with human CD33 V31A, 105 % of WT; with human CD33 T42A it was 36.6 % of WT; with human CD33 C41A, 4.5 % of WT; with human CD33 T30A it was 104 % of WT. Also, the “Mean % WT Binding” value in the assay with human CD33 C36A was 110 % of WT; with human CD33 G34A it was 100 % of WT; with human CD33 F43A it was 34.6 % of WT; with human CD33 F21A, 88.1 % of WT; with human CD33 P19A it was 87.4 % of WT; in the assay with human CD33 L23A it was 41.4 % of WT. Moreover, the “Mean % WT Binding” value is 91.3 % of WT with human CD33 Q32A; 92.9 % of WT with human CD33 N20A; 97.2 % of WT with human CD33 L35A; 79.2 % of WT with human CD33 V39A; 90 % of WT with human CD33 E33A; 39.5 % of WT with human CD33 D18A. The “Mean % WT Binding” value with human CD33 L38A was 105 % of WT; with human CD33 V37A it was 111 % of WT; in the assay with human CD33 V29A, 112 % of WT; with human CD33 H45A, 87.8 % of WT; in the assay with human CD33 E27A it was 92.6 % of WT; with human CD33 W22A it was 3.8 % of WT.

B3: Refmab #4 (antibody, human IgG1, V domains shown)
VH: QVQLVQSGAEVKKPGESVKVSCKASGYTFTNYGMNWVKQAPGQGLEWMGWINTYTGEPTYADKFQGRVTMTTDTSTSTAYMEIRNLGGDDTAVYYCARWSWSDGYYVYFDYWGQGTSVTVSS
VL: DIVMTQSPDSLTVSLGERTTINCKSSQSVLDSSTNKNSLAWYQQKPGQPPKLLLSWASTRESGIPDRFSGSGSGTDFTLTIDSPQPEDSATYYCQQSAHFPITFGQGTRLEIK
notes: Full-length MAb format, human IgG1 Fc silent (PG-LALA)
With B3, the “Signal:Background” value with human wild-type CD33 [2] is 38 signal:background ratio.

B4: Refmab #4 Fab fragment (Fab, V domains shown)
VH: QVQLVQSGAEVKKPGESVKVSCKASGYTFTNYGMNWVKQAPGQGLEWMGWINTYTGEPTYADKFQGRVTMTTDTSTSTAYMEIRNLGGDDTAVYYCARWSWSDGYYVYFDYWGQGTSVTVSS
VL: DIVMTQSPDSLTVSLGERTTINCKSSQSVLDSSTNKNSLAWYQQKPGQPPKLLLSWASTRESGIPDRFSGSGSGTDFTLTIDSPQPEDSATYYCQQSAHFPITFGQGTRLEIK
B4: the “Signal:Background” value with human wild-type CD33 [1] is 33 signal:background ratio.

B5: Refmab #3 Fab fragment (Fab, V domains shown)
VH: QVQLVQSGAEVKKPGSSVKVSCKASGYTFTDYNMHWVRQAPGQGLEWIGYIYPYNGGTGYNQKFKSKATITADESTNTAYMELSSLRSEDTAVYYCARGRPAMDYWGQGTLVTVSS
VL: DIQMTQSPSSLSASVGDRVTITCRASESVDNYGISFMNWFQQKPGKAPKLLIYAASNQGSGVPSRFSGSGSGTDFTLTISSLQPDDFATYYCQQSKEVPWTFGQGTKVEIK
Take B5: in the assay with human wild-type CD33 [3], the “Signal:Background” value was 12 signal:background ratio.

B6: Refmab #2 Fab fragment (Fab, V domains shown)
VH: QVQLVQSGAEVKKPGSSVKVSCKASGGTFSDYAISWVRQAPGQGLEWMGRIIPILGVADYAQKFQGRVTITADKSTRTAYMELSSLRSEDTAVYYCARNWADAFDIWGQGTMVTVSS
VL: DIQLTQSPSSLSASVGDRVTITCRASQGISSVLAWYQQKPGKAPKLLIYDASSLESGVPSRFSGSGSGTDFTLTISSLQPEDFATYYCQQFDSSITFGQGTKLEIK
Regarding B6, in the assay with human wild-type CD33 [3], the “Signal:Background” value was 7 signal:background ratio.
